Measurements as given in patent publication US9527898B2, “Oxyntomodulin derivatives and pharmaceutical composition for treating obesity comprising the same” (Hanmi Science Co., Ltd., dated 2016).
Non-standard residues stand in square brackets, D forms with d. No end group written: not given here. *: point of attachment. Acetyl(2-(4-imidazolyl)) = O=C(Cc1c[nH]cn1)*; Aib = CC(C)(N)C(=O)O

B1: oxyntomodulin derivative of SEQ ID NO. 11 (peptide)
peptide: HGEGTFTSDLSRQMEEEAVRLFIEWAAHSQGTFTSDYSRYLDK
modifications: not fully specified (residue 1, N-terminus); also: N-terminal CA (4-imidazoacetyl), whether it replaces His1 not given here
B2: oxyntomodulin derivative of SEQ ID NO. 17 (peptide)
peptide: HSQGTFTSDYSRYLDEEAVRLFIEWIRNTKRNRNNIA
modifications: not fully specified (residue 1, N-terminus); also: N-terminal CA (4-imidazoacetyl), whether it replaces His1 not given here

The binders below were run against human glucagon receptor (human, UniProt P47871) (assay: cell-based or functional assay).

Row | Binder | EC50 (nM), cAMP, CHO/GCGR [nM]
1 | H[Aib]QGTFTSDYAKYLDEKRAKEFVQWLMNTC [oxyntomodulin derivative of SEQ ID NO. 30] | 80.2
2 | HSQGTFTSDYSRYLDEEAVELFIEWLMNTK [oxyntomodulin derivative of SEQ ID NO. 13] | > 1000
3 | B1 | > 1000
4 | B2 | > 1000
5 | {Acetyl(2-(4-imidazolyl))}-HGEGTFTSDLSRQMEEEAVRLFIEWAAHSQGTFTSDYSKYLD [oxyntomodulin derivative of SEQ ID NO. 6] | > 1000
6 | H[Aib]QGTFTSDYSKYLDEKRAKEFVCWLMNT [oxyntomodulin derivative of SEQ ID NO. 23] | 5.8
7 | Y[Aib]QGTFTSDYSKYLDEKRAKEFVQWLMNTC [oxyntomodulin derivative of SEQ ID NO. 31] | 1
8 | H[Aib]QGTFTSDYSKYLDEKRAKEFVQWLMNT [oxyntomodulin derivative of SEQ ID NO. 28] | 0.3

These binders were tested against human GLP-1 receptor (human, UniProt P43220) (assay: cell-based or functional assay).

Row | Binder | EC50 (nM), cAMP, CHO/GLP-1R [nM]
9 | H[Aib]QGTFTSDYAKYLDEKRAKEFVQWLMNTC [oxyntomodulin derivative of SEQ ID NO. 30] | 2.2
10 | HSQGTFTSDYSRYLDEEAVELFIEWLMNTK [oxyntomodulin derivative of SEQ ID NO. 13] | > 1000
11 | H[Aib]QGTFTSDYSKYLDEKRAKEFVQWLMNTC (also: possible ring formation not assignable from text) [oxyntomodulin derivative of SEQ ID NO. 25] | 1.9
12 | B1 | > 1000
13 | H[Aib]QGTFTSDYSKYLDEKRAKEFVCWLMNT [oxyntomodulin derivative of SEQ ID NO. 23] | 2.46
14 | H[Aib]QGTFTSDYSKYLDEKRAKEFVQWLMNTC (also: possible ring formation not assignable from text) [oxyntomodulin derivative of SEQ ID NO. 24] | 1.43
15 | Y[Aib]QGTFTSDYSKYLDEKRAKEFVQWLMNTC [oxyntomodulin derivative of SEQ ID NO. 31] | 12.5
